The values that follow come from paper PMC6218797, “A Novel Thermostable GH3 β-Glucosidase from Talaromyce leycettanus with Broad Substrate Specificity and Significant Soybean Isoflavone Glycosides-Hydrolyzing Capability” (BioMed Research International, 2018).

The target of one data set is T1, Bgl3B (Rasamsonia emersonii, UniProt A0A343J2C3).
T1 construct: pPIC9, secreted from Pichia pastoris GS115; N-glycosylated, about 100 kDa on SDS-PAGE
T1 sequence (A0A343J2C3 1-841): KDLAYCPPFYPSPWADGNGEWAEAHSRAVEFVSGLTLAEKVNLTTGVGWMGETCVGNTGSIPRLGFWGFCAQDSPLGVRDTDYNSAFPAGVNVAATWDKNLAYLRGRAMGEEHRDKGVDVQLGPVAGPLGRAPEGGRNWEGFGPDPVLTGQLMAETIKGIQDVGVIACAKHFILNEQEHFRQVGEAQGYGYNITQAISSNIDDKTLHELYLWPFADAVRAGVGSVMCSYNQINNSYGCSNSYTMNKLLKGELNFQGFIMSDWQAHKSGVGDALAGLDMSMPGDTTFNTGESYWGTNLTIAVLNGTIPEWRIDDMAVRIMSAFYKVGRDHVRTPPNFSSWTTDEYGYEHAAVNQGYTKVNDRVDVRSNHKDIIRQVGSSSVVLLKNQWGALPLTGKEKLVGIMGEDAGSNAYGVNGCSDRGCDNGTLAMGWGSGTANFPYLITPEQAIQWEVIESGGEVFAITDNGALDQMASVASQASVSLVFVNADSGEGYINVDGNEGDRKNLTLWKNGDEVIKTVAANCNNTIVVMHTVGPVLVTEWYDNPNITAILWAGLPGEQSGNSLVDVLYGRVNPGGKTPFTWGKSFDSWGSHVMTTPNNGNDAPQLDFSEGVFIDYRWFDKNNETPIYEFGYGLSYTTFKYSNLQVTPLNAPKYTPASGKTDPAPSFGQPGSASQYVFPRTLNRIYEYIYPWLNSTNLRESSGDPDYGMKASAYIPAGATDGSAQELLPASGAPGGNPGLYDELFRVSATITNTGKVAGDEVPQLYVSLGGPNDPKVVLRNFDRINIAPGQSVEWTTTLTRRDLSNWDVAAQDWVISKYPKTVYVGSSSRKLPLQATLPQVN
The data set can be described thus: pNP release at […] nm, Dixon plot. The class given is biochemical. As to conditions: substrate pNPG 3 or 4 mM; pH 4.5, 65°C, citric acid-Na2HPO4; inhibition mode not stated.

Substrate in the data set “purified protein”: O=[N+]([O-])c1ccc(O[C@@H]2O[C@H](CO)[C@@H](O)[C@H](O)[C@H]2O)cc1
Description: purified protein. As to conditions: pH 4.5, 65°C, 5 min, 0.2-1.5 mM substrate.

`OC[C@H]1OC(O)[C@H](O)[C@@H](O)[C@@H]1O` (stereo partly drawn) [glucose] gave a Ki on Bgl3B of 7.1 mM.

B1: Bgl3B (Rasamsonia emersonii) (protein)
chain: T1 sequence (A0A343J2C3 1-841)
Turning to B1, in “purified protein”, the Km came to 1.03 mM and the kcat was found to be 714 s⁻¹.

What is called Ki is a dissociation constant, usually derived from enzyme kinetics or from competition with a known ligand. A lower Ki goes with tighter binding. The term Km denotes the concentration of substrate that gives half-maximal velocity. The kcat is the number of substrate molecules converted per active site and unit of time at saturation.
